Measurements as given in paper PMC12278352, “Characterization of DnaB–DnaG Interaction in M. tuberculosis Using Small‐Angle X‐ray Scattering‐Based Dissociation Assay” (Chembiochem, 2025).

Legend:
[1] = target: the molecule itself; test: cross-linking; Fe(II)-catalysed cross-linking of T7 primase (15 μM) with 1 mM ATP, ferrous chloride, H2O2, ascorbic acid, room temperature 45 min; products analysed by Superdex 200 SEC, SDS-PAGE and MALDI-TOF
[2] = target: the molecule itself; test: SAXS; T7 primase at constant concentration (1 mg/ml in the methods, 50 μM in the legend) with increasing 4-mer RNA (5'-ACCC-3'), RNA:protein molar ratio 1 to 10, in the presence of ATP/CTP, RNA and Mg2+; 20 mM Tris-HCl pH 7.5, 1 mM DTT; 4 °C; Rg against theoretical monomer (24 Å) and dimer (27 Å)
[3] = target: the molecule itself; test: SPR; full-length DnaG (7.2 μg) immobilised on a GLC chip by amine coupling; soluble DnaG 0-17 μM, 60 μL/min; signal at equilibrium; profile did not follow a pure 1:1 fit; monomer to dimer

| Protein | stoichiometry N [1] | stoichiometry N [2] | Kd [3] |
| --- | --- | --- | --- |
| primase domain of gene 4 protein (gp4) from bacteriophage T7 (residues 1–271) (domain or fragment, UniProt P03692 1-271, looked up, primase domain of gene 4 protein (gp4), bacteriophage T7, residues 1-271; For the NMR spectra the protein was 15N-labelled and deuterated; Monomer without cofactors, dimer with ATP/CTP, RNA and Mg2+; also called T7 primase; T7 DNA primase) MDNSHDSDSVFLYHIPCDNCGSSDGNSLFSDGHTFCYVCEKWTAGNEDTKERASKRKPSGGKPMTYNVWNFGESNGRYSALTARGISKETCQKAGYWIAKVDGVMYQVADYRDQNGNIVSQKVRDKDKNFKTTGSHKSDALFGKHLWNGGKKIVVTEGEIDMLTVMELQDCKYPVVSLGHGASAAKKTCAANYEYFDQFEQIILMFDMDEAGRKAVEEAAQVLPAGKVRVAVLPCKDANECHLNGHDREIMEQVWNAGPWIPDGVVSALSL | 3 | 2 | – |
| M. tuberculosis DnaG primase, full-length (enzyme, DnaG primase, Mycobacterium tuberculosis, full length (the truncated form ends at amino acid 639); also called full DnaG; full-length DnaG) MSGRISDRDIAAIREGARIEDVVGDYVQLRRAGADSLKGLCPFHNEKSPSFHVRPNHGHFHCFGCGEGGDVYAFIQKIEHVSFVEAVELLADRIGHTISYTGAATSVQRDRGSRSRLLAANAAAAAFYAQALQSDEAAPARQYLTERSFDAAAARKFGCGFAPSGWDSLTKHLQRKGFEFEELEAAGLSRQGRHGPMDRFHRRLLWPIRTSAGEVVGFGARRLFDDDAMEAKYVNTPETLLYKKSSVMFGIDLAKRDIAKGHQAVVVEGYTDVMAMHLAGVTTAVASCGTAFGGEHLAMLRRLMMDDSFFRGELIYVFDGDEAGRAAALKAFDGEQKLAGQSFVAVAPDGMDPCDLRLKCGDAALRDLVARRTPLFEFAIRAAIAEMDLDSAEGRVAALRRCVPMVGQIKDPTLRDEYARQLAGWVGWADVAQVIGRVRGEAKRTKHPRLGRLGSTTIARAAQRPTAGPPTELAVRPDPRDPTLWPQREALKSALQYPALAGPVFDALTVEGFTHPEYAAVRAAIDTAGGTSAGLSGAQWLDMVRQQTTSTVTSALISELGVEAIQVDDDKLPRYIAGVLARLQEVWLGRQIAEVKSKLQRMSPIEQGDEYHALFGDLVAMEAYRRSLLEQASGDDLTA | – | – | 2000 ± 300 nM |
